Experimental data taken from patent US20200140501A1 (published 2020).

Molecular target: T1, hNGAL lipocalin mutein SEQ ID NO: 1
T1 chain: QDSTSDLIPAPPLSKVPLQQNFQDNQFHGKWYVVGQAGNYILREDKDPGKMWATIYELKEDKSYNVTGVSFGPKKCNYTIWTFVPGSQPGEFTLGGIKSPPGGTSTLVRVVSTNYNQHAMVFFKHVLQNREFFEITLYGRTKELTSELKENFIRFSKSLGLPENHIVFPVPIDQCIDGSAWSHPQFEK
Test: solution competition ELISA: ligand titrated against 0.1 nM SEQ ID NO: 1, free mutein captured on immobilised hAng-2
Description: In the following detailed experimental protocol, incubation and washing steps were performed as described above in the competition ELISA protocol (see Example 5).
The residual supernatants were discarded and 20 μl HRP-labeled anti-lipocalin-mutein antibody was added at a predetermined optimal concentration in PBS-T/BSA and incubated for 1 h at RT. […] After washing, 20 μl fluorogenic HRP substrate (Quantablue, Pierce) was added to each well, and the reaction was allowed to proceed for 60 minutes. The fluorescence intensity of every well on the plate was read using a Genios Plus Microplate reader (Tecan).

IC50: > 100 nM
B1: human angiopoietin-1 (Ang-1) (ligand, UniProt Q15389 20-498, looked up)
chain: SNQRRSPENSGRRYNRIQHGQCAYTFILPEHDGNCRESTTDQYNTNALQRDAPHVEPDFSSQKLQHLEHVMENYTQWLQKLENYIVENMKSEMAQIQQNAVQNHTATMLEIGTSLLSQTAEQTRKLTDVETQVLNQTSRLEIQLLENSLSTYKLEKQLLQQTNEILKIHEKNSLLEHKILEMEGKHKEELDTLKEEKENLQGLVTRQTYIIQELEKQLNRATTNNSVLQKQQLELMDTVHNLVNLCTKEGVLLKGGKREEEKPFRDCADVYQAGFNKSGIYTIYINNMPEPKKVFCNMDVNGGGWTVIQHREDGSLDFQRGWKEYKMGFGNPSGEYWLGNEFIFAITSQRQYMLRIELMDWEGNRAYSQYDRFHIGNEKQNYRLYLKGHTGTAGKQSSLILHGADFSTKDADNDNCMCKCALMLTGGWWFDACGPSNLNGMFYTAGQNHGKLNGIKWHYFKGPSYSLRSTTMMIRPLDF
notes: also called hAng-1; human Ang-1
